In paper PMC10397247 one finds interaction score data, which are given here for six molecules.

For test [1], the target named is T1, Core_NIII-es_KEKK.
T1 chain: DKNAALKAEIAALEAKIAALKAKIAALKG
As to the kind of experiment: two-hybrid library CCmax.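 Note: natural log of median RNA to DNA barcode read ratio; higher means stronger binding.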 Conditions: mean of both orientations.

In test [2] the target is T2, P6A.
T2 chain: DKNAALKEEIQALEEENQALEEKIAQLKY
As to the kind of experiment: two-hybrid library CCNG1.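 Note: natural log of median RNA to DNA barcode read ratio; higher means stronger binding.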

Test [3] has as its target T3, P3A.
T3 chain: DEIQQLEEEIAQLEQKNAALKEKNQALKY
As to the kind of experiment: two-hybrid library CCNG1.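 Note: natural log of median RNA to DNA barcode read ratio; higher means stronger binding.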

In test [4] the target is T4, P1A.
T4 chain: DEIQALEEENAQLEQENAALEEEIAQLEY
As to the kind of experiment: two-hybrid library CCNG1.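 Note: natural log of median RNA to DNA barcode read ratio; higher means stronger binding.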

In test [5] the target is T5, P2A.
T5 chain: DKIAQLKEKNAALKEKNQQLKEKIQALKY
As to the kind of experiment: two-hybrid library CCNG1.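 Note: natural log of median RNA to DNA barcode read ratio; higher means stronger binding.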

Test [6] has as its target T6, P9A.
T6 chain: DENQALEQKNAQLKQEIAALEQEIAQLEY
As to the kind of experiment: two-hybrid library CCNG1.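 Note: natural log of median RNA to DNA barcode read ratio; higher means stronger binding.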

The target in test [7] is T7, P10A.
T7 chain: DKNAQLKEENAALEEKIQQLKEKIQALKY
The test is described as follows: two-hybrid library CCNG1.

For test [8], the target named is T8, P11A.
T8 chain: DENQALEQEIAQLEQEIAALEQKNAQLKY
As to the kind of experiment: two-hybrid library CCNG1.

The target in test [9] is T9, P4A.
T9 chain: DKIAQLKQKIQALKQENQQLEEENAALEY
The test is described as follows: two-hybrid library CCNG1.

In test [10] the target is T10, P5A.
T10 chain: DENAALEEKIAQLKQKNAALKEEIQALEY
The test is described as follows: two-hybrid library CCNG1.

In test [11] the target is T11, P8A.
T11 chain: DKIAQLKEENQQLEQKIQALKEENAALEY
The test is described as follows: two-hybrid library CCNG1.

The target in test [12] is T12, P7A.
T12 chain: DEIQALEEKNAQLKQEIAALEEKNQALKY
As to the kind of experiment: two-hybrid library CCNG1.

In test [13] the target is T13, P12A.
T13 chain: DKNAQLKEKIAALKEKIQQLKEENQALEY
The test is described as follows: two-hybrid library CCNG1.

Test [14] concerns the target T14, P11mSN.
T14 chain: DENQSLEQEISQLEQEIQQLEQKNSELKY
As to the kind of experiment: two-hybrid library CCNG1.

Test [15] addresses T15, P3mSN.
T15 chain: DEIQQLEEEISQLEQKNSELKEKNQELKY
As to the kind of experiment: two-hybrid library CCNG1.

Test [16] deals with T16, P2mSN.
T16 chain: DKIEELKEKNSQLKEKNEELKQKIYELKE
As to the kind of experiment: two-hybrid library CCNG1.

Test [17] concerns the target T17, P4mSN.
T17 chain: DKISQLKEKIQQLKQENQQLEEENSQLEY
The test is described as follows: two-hybrid library CCNG1.

The target of test [18] is T18, P5mSN.
T18 chain: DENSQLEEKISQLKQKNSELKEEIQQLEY
The test is described as follows: two-hybrid library CCNG1.

Test [19] addresses T19, P1mSN.
T19 chain: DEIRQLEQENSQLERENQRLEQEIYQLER
As to the kind of experiment: two-hybrid library CCNG1.

Test [20] addresses T20, P8mSN.
T20 chain: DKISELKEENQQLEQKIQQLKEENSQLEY
As to the kind of experiment: two-hybrid library CCNG1.

For test [21], the target named is T21, P9mSN.
T21 chain: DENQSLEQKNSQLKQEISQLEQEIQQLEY
The test is described as follows: two-hybrid library CCNG1.

Test [22] deals with T22, P6mSN.
T22 chain: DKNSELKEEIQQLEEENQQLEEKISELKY
The test is described as follows: two-hybrid library CCNG1.

For test [23], the target named is T23, P7mSN.
T23 chain: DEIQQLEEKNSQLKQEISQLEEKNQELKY
As to the kind of experiment: two-hybrid library CCNG1.

Test [24] addresses T24, P10mSN.
T24 chain: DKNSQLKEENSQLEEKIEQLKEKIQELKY
As to the kind of experiment: two-hybrid library CCNG1.

Test [25] has as its target T25, P12mSN.
T25 chain: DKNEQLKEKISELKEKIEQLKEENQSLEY
The test is described as follows: two-hybrid library CCNG1.

The target in test [26] is T26, Core_NNNI-es_KKKK.
T26 chain: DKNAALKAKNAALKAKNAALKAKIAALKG
As to the kind of experiment: two-hybrid library CCmax. Conditions: mean of both orientations.

The target of test [27] is T27, Core_NIIN-es_KKEK.
T27 chain: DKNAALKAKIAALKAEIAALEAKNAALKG
The test is described as follows: two-hybrid library CCmax. Conditions: mean of both orientations.

In test [28] the target is T28, Core_NNIN-es_KKKK.
T28 chain: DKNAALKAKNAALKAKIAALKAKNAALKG
As to the kind of experiment: two-hybrid library CCmax. The following applies: mean of both orientations.

In turn, DENAALEAKIAALKAEIAALEAEIAALEG [Core_NIII-es_EKEE] registered an interaction score in [1] of 1.92.
For DKNAQLKEENAALEEKIQQLKEKIQALKY [P10A], the interaction score was 0.00329 in test [2]; 0.616 in test [3]; 0.349 in [4]; -0.904 in [5]; 2.37 in test [6]; -0.322 in test [7]. Further, the interaction score is 0.405 in [8]; -0.619 in test [9]; -0.424 in test [10]; -0.507 in test [11]; 1.36 in test [12]; -0.26 in test [13].
Regarding DKNSQLKEENSQLEEKIEQLKEKIQELKY [P10mSN], the interaction score in [14] is -0.495; in [15] it was -0.696; in [16], -1.62; in test [17] it was -0.959; in test [18], -0.891; in test [19], 0.0169. In addition, the interaction score in test [20] is -0.586; in test [21], 0.647; in [22], -0.212; in test [23], 0.521; in test [24], 0.0645; in test [25] it was -0.911.
Regarding DENAALEAENAALEAENAALEAEIAALEG [Core_NNNI-es_EEEE], the interaction score in [26] worked out at 2.16.
In test [27], DENAALEAEIAALEAKIAALKAENAALEG [Core_NIIN-es_EEKE] had an interaction score of 1.96.
For DENAALEAENAALEAEIAALEAENAALEG [Core_NNIN-es_EEEE], the interaction score in [28] was 1.83.
